Experimental data from article PMC9609871, “Binding and Kinetic Analysis of Human Protein Phosphatase PP2A Interactions with Caspase 9 Protein and the Interfering Peptide C9h” (Pharmaceutics, 2022).
Read-outs that look alike come from different tables or passages of the source.

Biological target: T1, PP2A (Homo sapiens, UniProt P67775)
T1 construct: purchased LSBio
Test: BLI: PP2A analyte binding to immobilized Caspase 9 (Protein A biosensor, anti-Caspase 9)
Protocol: Kinetic analysis was performed based on biolayer interferometry (BLI) by using a BLItz instrument (ForteBio, Bayonne, France) at room temperature. Prior to use, each biosensor was hydrated in sample diluent (SD: PBS1X, pH 7.0, 0.02% Tween 20, 0.1% BSA) for at least 10 min. Kinetic measurements of PP2A/Caspase 9 interactions were run with Protein A biosensors (Fortebio) and consisted of seven steps, all performed in reaction buffer, as follows: (i) initial baseline in 300 µL SD for 30 s was measured; (ii) 4 µL of mouse anti-Caspase 9 or rabbit anti-PP2A were immobilized on the sensor for 150 s at 133 nM; (iii) the immunosensor was washed with 300 µL SD for 120 s; (iv) 4 µL of purified ligand Caspase 9 at 566 nM (Origen) or PP2A at 694 nM (LSBio) were loaded on the immunosensor for 150 s; (v) the ligand-coated immunosensor was washed with 300 µL SD for 120 s; (vi) association of purified analytes diluted in SD at the mentioned concentrations was studied for 150 s in 4 µL; and (vii) dissociation step was then monitored in 300 µL SD for 120 s.
Experiments using empty immunosensors (no ligand loaded) were run as control. Sensorgrams were fit globally to a 1:1 binding model by BLItz Pro software, from which the association (kon) and dissociation (koff) rate constants and apparent affinities (KD) were calculated. […]

T1 sequence (P67775 whole entry): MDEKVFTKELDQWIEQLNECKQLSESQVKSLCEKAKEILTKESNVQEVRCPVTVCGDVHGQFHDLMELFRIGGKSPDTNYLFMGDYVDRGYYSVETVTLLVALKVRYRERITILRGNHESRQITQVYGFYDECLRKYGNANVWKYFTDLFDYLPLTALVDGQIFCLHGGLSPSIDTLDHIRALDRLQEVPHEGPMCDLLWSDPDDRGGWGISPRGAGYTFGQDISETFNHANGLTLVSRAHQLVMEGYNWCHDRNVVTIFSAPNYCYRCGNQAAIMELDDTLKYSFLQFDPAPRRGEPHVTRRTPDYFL

B1: Caspase 9: purified Caspase 9 protein (Origen), cysteine protease, initiator of intrinsic apoptosis (protein)
chain: MDEADRRLLRRCRLRLVEELQVDQLWDALLSRELFRPHMIEDIQRAGSGSRRDQARQLIIDLETRGSQALPLFISCLEDTGQDMLASFLRTNRQAAKLSKPTLENLTPVVLRPEIRKPEVLRPETPRPVDIGSGGFGDVGALESLRGNADLAYILSMEPCGHCLIINNVNFCRESGLRTRTGSNIDCEKLRRRFSSLHFMVEVKGDLTAKKMVLALLELAQQDHGALDCCVVVILSHGCQASHLQFPGAVYGTDGCPVSVEKIVNIFNGTSCPSLGGKPKLFFIQACGGEQKDHGFEVASTSPEDESPGSNPEPDATPFQEGLRTFDQLDAISSLPTPSDIFVSYSTFPGFVSWRDPKSGSWYVETLDDIFEQWAHSEDLQSLLLRVANAVSVKGIYKQMPGCFNFLRKKLFFKTS
modifications: Commercial purified Caspase 9 (Origen)
Kd (discussion summary of PP2A/Caspase 9 BLI studies, in the range of, read-out: binding affinity of PP2A to Caspase 9): ~150 nM
Kd (summary: close to, PP2A analyte on immobilized Caspase 9, read-out: affinity, both models): ~100 nM
